Assay results taken from US7164008B2, “Isolated complexes of endotoxin and MD-2” (priority 2003, dated 2007).

Key:
[1] = tested on: human airway epithelia; experiment: Endotoxin responsiveness of primary human airway epithelia (HBD-2 mRNA real time PCR, NF-κB-luciferase); type: cell-based; conditions: IL-1β 100 ng/ml, 24 hr, real time PCR
Procedure: FIG. 6 depicts endotoxin responsiveness of well-differentiated primary cultures of human airway epithelia. Polarized epithelia were treated with NTHi LOS (100 ng/ml), sCD14 (100 ng/ml) and LBP (250 ng/ml) by apical application in a 50 μl volume. Twenty-four hours later, epithelia were harvested and analyzed for HBD-2 mRNA expression by real time PCR. As depicted in FIG. 6A, apical stimulation of airway epithelia with NTHi LOS induced little change in HBD-2 MRNA expression (2 epithelia/trial, n=3 different donors, * indicates p<0.05). In contrast, IL-1β markedly induces HBD-2 mRNA. FIG. 6B depicts the polarity of epithelial responses to IL-1β and NTHi LOS. […]
FIG. 9 depicts the effects of MD-2 complementation on endotoxin responsiveness in human airway epithelia. […] Fold increase in HBD-2 mRNA expression were quantified by real time PCR. […] NF-κB-luciferase activity was measured 24 hr following endotoxin treatment (n=5 epithelia/condition, * indicates p<0.05). […] 24 hr after endotoxin treatment, HBD-2 expression was quantified by real time PCR. […]
Well differentiated human airway epithelia were treated with N. meningitidis LOS-sCD14 (5 ng LOS/ml), with or without the addition of cell culture supernatants containing rMD-2. […] HBD-2 expression was quantified by real time PCR. […]
Real-time PCR was employed to detect human β-defensin-2 and MD-2 and to quantify changes in expression. […]

[2] = tested on: human airway epithelia; experiment: MD-2 mRNA expression in human airway epithelia after stimuli (real time PCR); type: cell-based; conditions: 18–24 hr stimulation
Procedure: Fold increase in MD-2 mRNA expression was quantified using real time PCR. FIG. 10 represents the results from three independent experiments on three different epithelial preparations. * indicates p<0.05.
Real-time PCR was employed to detect human β-defensin-2 and MD-2 and to quantify changes in expression. Real-time quantitative PCR was performed using a sequence detector (ABI PRISM 7700, Applied Biosystems, Foster City, Calif.) and Taqman technology (Roche Molecular Diagnostic Systems) following the manufacturer's protocols (Bustin, 2000). The primers and probes were designed using the Primer Express program (Applied Biosystems). For MD-2, the primers were-forward5′-[…]-3′ (SEQ ID NO:11), reverse 5′-GCATTTCTTCTGGGCTCCC-3′ (SEQ ID NO:12), and probe 5′-[…]-3′ (SEQ ID NO:13). For HBD-2, the forward primer was-5′-[…]-3′ (SEQ ID NO:14), the reverse primer-5′-[…]-3′ (SEQ ID NO:15), and the probe was-5′-[…]-3′ (SEQ ID NO:16). Both probes contain a fluorescent reporter (6-Carboxyfluorescein [FAM]) at the 5′ end and a fluorescent quencher (6-Carboxytetramethylrhodamine [TAMRA]) at the 3′ end. As an internal control for normalization, human GAPDH real-time quantitative PCR was conducted in every reaction. The primers and probes were purchased from Roche Molecular Diagnostic Systems. The PCR fragments were amplified for 40 cycles (15 sec at 95° C. and 1 min at 60° C.). […]

[3] = molecular target: T1, TLR4 (Homo sapiens, UniProt O00206+Q9Y6Y9); experiment: HEK cell activation assay: extracellular IL-8 by ELISA; type: cell-based
T1 construct: host or cells: HEK293 stably transfected with TLR4 (HEK/TLR4)
Description: Conditioned insect cell culture medium containing soluble, polyhistidine-tagged recombinant wild-type (wt) or C95Y mutant MD-2 were generated according to the method of Viriyakosol et al. (2001). A human embryonic kidney cell line (HEK293) that stably expresses TLR4 (HEK/TLR4), but lacks both CD14 and MD-2 (Yang et al., 2000), was used to evaluate the effect of MD-2 on the ability of lipooligosaccharide (LOS) to interact with TLR4 and promote activation.
FIG. 1 depicts the expression and bioactivity of recombinant MD-2-His6. FIGS. 1A and 1B depict SDS-PAGE immunoblots of control culture medium (FIG. 1A, lane 1) or medium from HiFive cells infected with recombinant baculovirus encoding wt (FIG. 1A, lane 2; FIG. 1B, lanes 1–3) or C95Y MD-2 (FIG. 1B, lane 4). MD-2 was detected using anti-(His)4 antibody. All samples represent 1 μl of culture medium except B, lanes 2 and 3, which represent 0.3 and 0.1 μl and A, lane 3, which represents molecular weight markers. In FIG. 1C, HEK/TLR4 cells were incubated in HEPES-buffered HBSS+/0.1% albumin with [^14C]-LOSagg (3 ng/ml)+/−LBP (30 ng/ml) and/or (60 μl) culture medium containing wt MD-2 (MD-2) (open bars); LOSagg+LBP and sCD14 (250 ng/ml)+/−wt (closed bars) or C95Y “MD-2” (striped bars), or [^14C]-LOS-sCD14 (2 ng LOS/ml)+/−wt or C95Y “MD-2” (closed bars). After overnight incubation, extracellular IL-8 was assayed by ELISA. In FIG. 1D, HEK/TLR4 cells were incubated with increasing amounts of wt (▪) or C95Y (◯) MD-2+[^14C]-LOS-sCD14 (2 ng/ml) and cell activation measured. Results shown are from one experiment (duplicate samples) representative of four independent experiments.
In FIG. 2, a bioactive complex (Mr˜25,000) containing MD-2 and [^14C]-LOS is formed by incubation of [^14C]-LOS-sCD14 with wt, but not C95Y, MD-2. In FIG. 2A, dialyzed control insect cell medium (◯) or medium containing wt (♦) or C95Y ( ? ) MD-2 was incubated for 30 min, 37° C. with (1:1 vol/vol) [^14C]-LOS-sCD14 in HBSS+, 10 mM HEPES and chromatographed on Sephacryl S100. Column fractions were analyzed for [^14C]-LOS. Identical results were obtained in analytical (5 ng [^14C]-LOS/ml+200 μl culture medium) or more preparative runs (reagents concentrated 20×). In FIG. 2B, peak fractions (Mr˜25,000) from treatment of [^14C]-LOS-sCD14 with wt MD-2 (FIG. 2A) were re-chromatographed on S100 in HBSS+, 10 mM HEPES without HSA; recovery of [^14C]-LOS was >80%. In FIG. 2C, HEK (□) or HEK/TLR4 (▪) were incubated overnight with the indicated amounts of LOS added as purified Mr˜25,000 (LOS-MD-2) complex. Cell activation was measured by IL-8 accumulation. Results shown correspond to one experiment, in duplicate, representative of three similar experiments. FIGS. 2D and 2E depict adsorption and elution of bioactive Mr˜25,000 complex to HisBind resin. Peak fractions of the purified complex (FIG. 2B; 10 ng [^14C]-LOS) were dialyzed against PBS and incubated with HisBind resin (0.125 ml) for 1 hr at 25° C. and processed as described in Methods. Non-adsorbed (Flow-thru) and adsorbed material eluted with 200 mM imidazole were precipitated with trichloroacetic acid to concentrate sample for SDS-PAGE/immunoblot analysis. […]
Purified [^14C]-LOSagg or [^14C]-LOS-sCD14 (3 ng LOS/ml)+/−indicated proteins (30 ng/ml LBP, 250 ng/ml sCD14, 60 μl culture medium) were incubated at 37° C. for 30 min. After this incubation, samples were analyzed by gel filtration chromatography to monitor formation of [^14C]-LOS-MD-2 and by incubation with HEK/TLR4 cells to measure cell activation. […]

[4] = tested on: MD-2; experiment: Formation of [^14C]-LOS-MD-2 complex monitored by gel filtration chromatography; type: binding, human; conditions: 30 min, 37° C., Sephacryl S100
Procedure: In FIG. 2, a bioactive complex (Mr˜25,000) containing MD-2 and [^14C]-LOS is formed by incubation of [^14C]-LOS-sCD14 with wt, but not C95Y, MD-2. In FIG. 2A, dialyzed control insect cell medium (◯) or medium containing wt (♦) or C95Y ( ? ) MD-2 was incubated for 30 min, 37° C. with (1:1 vol/vol) [^14C]-LOS-sCD14 in HBSS+, 10 mM HEPES and chromatographed on Sephacryl S100. Column fractions were analyzed for [^14C]-LOS. Identical results were obtained in analytical (5 ng [^14C]-LOS/ml+200 μl culture medium) or more preparative runs (reagents concentrated 20×). […] Cell activation was measured by IL-8 accumulation. […]
Purified [^14C]-LOSagg or [^14C]-LOS-sCD14 (3 ng LOS/ml)+/−indicated proteins (30 ng/ml LBP, 250 ng/ml sCD14, 60 μl culture medium) were incubated at 37° C. for 30 min. After this incubation, samples were analyzed by gel filtration chromatography to monitor formation of [^14C]-LOS-MD-2 and by incubation with HEK/TLR4 cells to measure cell activation.
Columns of Sephacryl HR S200 (1.6 cm×30 cm) or S100 (1.0 cm×60 cm) were pre-equilibrated in 10 mM HEPES, HBSS^++/−0.1% HSA. […] Aliquots of the collected fractions were analyzed by liquid scintillation spectroscopy using a Beckman LS liquid scintillation counter to detect [^14C]-LOS. […]

T1 sequence (O00206 24-839): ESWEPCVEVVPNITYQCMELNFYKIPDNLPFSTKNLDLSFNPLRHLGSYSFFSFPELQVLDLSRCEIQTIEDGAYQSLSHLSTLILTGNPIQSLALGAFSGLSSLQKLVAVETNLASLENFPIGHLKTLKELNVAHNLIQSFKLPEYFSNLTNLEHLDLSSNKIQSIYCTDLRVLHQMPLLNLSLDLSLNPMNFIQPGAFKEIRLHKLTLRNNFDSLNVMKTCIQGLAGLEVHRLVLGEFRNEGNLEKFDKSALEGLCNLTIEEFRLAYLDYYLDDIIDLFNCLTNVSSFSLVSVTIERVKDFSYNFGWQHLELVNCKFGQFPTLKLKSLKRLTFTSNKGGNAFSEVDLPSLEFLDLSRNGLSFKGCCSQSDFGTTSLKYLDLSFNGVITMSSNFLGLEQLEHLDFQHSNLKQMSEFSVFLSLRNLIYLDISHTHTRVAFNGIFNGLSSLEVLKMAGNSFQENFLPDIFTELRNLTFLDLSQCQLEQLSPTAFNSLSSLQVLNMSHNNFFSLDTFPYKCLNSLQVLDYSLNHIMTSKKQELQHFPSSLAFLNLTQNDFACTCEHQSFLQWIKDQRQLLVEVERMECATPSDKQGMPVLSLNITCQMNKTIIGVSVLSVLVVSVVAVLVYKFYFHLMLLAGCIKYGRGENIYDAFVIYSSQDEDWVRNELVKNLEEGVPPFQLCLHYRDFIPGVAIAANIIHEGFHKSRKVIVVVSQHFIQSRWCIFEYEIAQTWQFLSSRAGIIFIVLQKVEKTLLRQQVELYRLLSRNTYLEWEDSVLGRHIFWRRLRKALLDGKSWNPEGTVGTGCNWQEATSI
T1 sequence (Q9Y6Y9 19-160): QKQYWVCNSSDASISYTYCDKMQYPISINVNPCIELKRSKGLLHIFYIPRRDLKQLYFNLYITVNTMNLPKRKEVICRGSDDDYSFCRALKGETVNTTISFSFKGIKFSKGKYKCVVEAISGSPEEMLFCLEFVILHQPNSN

For “IL-1β: human recombinant IL-1β, positive control [reference compound]”, which “increase in HBD-2 expression” value [1] is on record?
Its value is > 10,000 fold.

CCCCCCCCCCCCCC(=O)O[C@@H]1[C@@H](C)[C@@]2(O)[C@@H](C=C(CO)C[C@]3(O)C(=O)C(C)=C[C@@H]23)[C@@H]2C(C)(C)[C@]12OC(C)=O [phorbol myristate acetate, reference compound] was tested. Which “steady state MD-2 mRNA levels” value [2] did it give?
Its value is “induced”.

B1: C95Y MD-2 (protein)
chain: QKQYWVCNSSDASISYTYCDKMQYPISINVNPCIELKRSKGLLHIFYIPRRDLKQLYFNLYITVNTMNLPKRKEVIYRGSDDDYSFCRALKGETVNTTISFSFKGIKFSKGKYKCVVEAISGSPEEMLFCLEFVILHQPNSNHHHHHH
With B1 as the molecule, how does the “activation of HEK/TLR4 cells by LOS-sCD14 (or LOSagg+LBP+sCD14) on addition of medium containing MD-2” value ([3]; IL-8 release, LOS-sCD14 2 ng LOS/ml) read?
Its value is “not seen”.

What about the “inhibition of activation of HEK/TLR4 by [^14C]-LOS-MD-2 by added MD-2” value ([3]; [^14C]-LOS-MD-2 0.3 ng/ml, increasing amounts of conditioned medium) of the same molecule?
The value was “intermediate inhibitory effect”.

What about the “reaction with [^14C]-LOS-sCD14 to generate new Mr˜25,000 [^14C]-LOS-containing complex” value [4] of the same molecule?
The value was “no change”.

B2: P6: outer membrane protein P6 from non-typeable Haemophilus influenzae (protein, UniProt P10324 20-153, looked up)
Peptidoglycan-associated …: CSSSNNDAAGNGAAQTFGGYSVADLQQRYNTVYFGFDKYDITGEYVQILDAHAAYLNATPAAKVLVEGNTDERGTPEYNIALGQRRADAVKGYLAGKGVDAGKLGTVSYGEEKPAVLGHDEAAYSKNRRAVLAY
With B2 as the molecule, how does the “steady state MD-2 mRNA levels” value [2] read?
Its value is “marked increases”.
